The text below walks through data of US10781452B2, “FLT3 receptor antagonists for the treatment or the prevention of pain disorders” (INSTITUT NATIONAL DE LA SANTE ET DE LA RECHERCHE MEDICALE …, priority 2010, dated 2020).

This assay has as its target T1, full-length hFLT3 (Homo sapiens, UniProt P36888).
T1 construct: host or cells: HEK293T
T1 sequence (P36888 27-993): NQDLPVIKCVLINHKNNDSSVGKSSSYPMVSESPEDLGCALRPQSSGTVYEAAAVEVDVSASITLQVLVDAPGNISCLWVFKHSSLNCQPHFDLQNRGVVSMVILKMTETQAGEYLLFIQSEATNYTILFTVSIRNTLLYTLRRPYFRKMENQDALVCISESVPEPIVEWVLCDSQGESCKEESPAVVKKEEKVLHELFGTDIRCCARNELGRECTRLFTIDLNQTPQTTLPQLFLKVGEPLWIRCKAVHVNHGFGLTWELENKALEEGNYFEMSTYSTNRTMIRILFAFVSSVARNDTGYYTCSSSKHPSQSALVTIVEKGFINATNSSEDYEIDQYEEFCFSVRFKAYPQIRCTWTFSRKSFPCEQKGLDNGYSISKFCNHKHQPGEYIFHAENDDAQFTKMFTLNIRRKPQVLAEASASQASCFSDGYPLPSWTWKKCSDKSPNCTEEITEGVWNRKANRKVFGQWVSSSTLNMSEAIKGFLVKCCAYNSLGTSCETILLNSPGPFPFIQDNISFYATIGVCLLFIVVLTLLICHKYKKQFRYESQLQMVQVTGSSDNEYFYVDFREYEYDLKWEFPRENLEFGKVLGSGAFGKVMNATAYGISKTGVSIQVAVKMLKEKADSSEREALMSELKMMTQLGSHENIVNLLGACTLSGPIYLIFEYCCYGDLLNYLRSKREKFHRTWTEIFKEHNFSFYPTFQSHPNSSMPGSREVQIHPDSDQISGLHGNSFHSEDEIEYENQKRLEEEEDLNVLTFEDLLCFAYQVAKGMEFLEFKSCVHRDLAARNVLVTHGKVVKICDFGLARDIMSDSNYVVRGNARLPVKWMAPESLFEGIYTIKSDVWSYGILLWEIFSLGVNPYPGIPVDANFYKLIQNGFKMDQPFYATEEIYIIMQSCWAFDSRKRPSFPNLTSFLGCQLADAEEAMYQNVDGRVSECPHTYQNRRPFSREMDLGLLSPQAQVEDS
In words: TR-FRET displacement of Red-FL binding, HEK cells expressing full-length hFLT3. As to conditions: HEK cells expressing full-length hFLT3, 0.5 nM Red-FL. The method, then: The binding of the A3 antibody to full-length hFLT3 and mFLT3 was measured by displacement of extracellular FL binding on recombinant HEK cells by using time-resolved fluorescence resonance energy transfer (TR-FRET).
Chemicals and reagents. The Tag-lite® labeling medium was from Cisbio Bioassays (Condolet, France). The Lumi4-Tb derivative of O6-Benzylguanine was synthesized by Cisbio Bioassays and is commercialized as SNAP-Lumi4-Tb (Cisbio Bioassays, Ref. SSNPTBE).
A recombinant rh-FLT3-L was produced as previously reported (Verstraete K, et al. Efficient production of bioactive recombinant human Flt3 ligand in E. coli. Protein J, 2009 28: 57-65) and labeled with a red fluorescent probe (Red-FL). Poly-L-ornithine (MW of 30,000-70,000 daltons) was from Sigma-Aldrich. The plasmids encoding for the SNAP tagged human FLT3 (pSNAP-hFLT3) or the mouse FLT3 (pSNAP-mFLT3) used for transient transfection was obtained from Cisbio Bioassays. Monoclonal antibodies against FLT3 (8F2) and phosphotyrosine FLT3 (PY969) were purchased from Cell Signaling Technology and labeled with Lumi4-Tb and d2 respectively, by Cisbio.
Cell culture. HEK293T cells, used for binding assays, were maintained in DMEM Glutamax (Invitrogen) supplemented with antibiotics (penicillin 50 U/ml, streptomycin 50 μg/ml) and 10% heat-inactivated Fetal Calf Serum.
Transfection procedures. […]

B1: A3 antibody: human monoclonal antibody against FLT3; VH SEQ ID NO:1, VL SEQ ID NO:2 (antibody, V domains shown)
VH: EVQLVESGGSLVKPGGSLRLSCAASGFTFSNSYMNWVRQAPGKGLEWISDISGSSRDIDYADFVKGRFTISRDNATNSLYLQMNSLRAEDTAVYYCVRSGNSGMDVWGRGTLVTVSS
VL: QSVLTQPASVSGSPGQSITISCAGTSSDVGGGYYVSWYQQHPGKAPKLMIYYDSYRPSGVSNRFSGSKSGNTASLTISGLQAEDEADYYCSSYTNNSTRVFGGGTKLEIK
modifications: Synthetic VH domain of A3; Synthetic VL region of A3
On to B1, for which the “IC50, displacement of FL binding” value is reported as “about 17 μg/ml”.
